Reference: PMC7820290 (Nature Communications, 2020)

How the values were obtained:
Assay in all cases: […]; 5 mM HEPES pH 7.5, 80 mM KCl, 20 °C; […]
Settings in all cases: both partners purified
[1] = molecular target: T1, SARS-CoV-2 N protein residues 49–364 (SARS-CoV-2, UniProt P0DTC9 49-364)
T1 construct: also called N^49–364

[2] = molecular target: T2, SARS-CoV-2 N protein residues 1–364 (SARS-CoV-2, UniProt P0DTC9 1-364)
T2 construct: also called N^1–364

[3] = molecular target: T3, SARS-CoV-2 N protein residues 49–419 (SARS-CoV-2, UniProt P0DTC9 49-419)
T3 construct: also called N^49–419

Measured: binding result

B1: soluble C-terminal domain of SARS-CoV-2 membrane (M) protein (aa 104–222 of 222) fused to GFP (domain or fragment)
chain: ARTRSMWSFNPETNILLNVPLHGTILTRPLLESELVIGAVILRGHLRIAGHHLGRCDIKDLPKEITVATSRTLSYYKLGASQRVAGDSGFAAYSRYRIGNYKLNTDHSSSSDNIALLVQ
notes: also called GFP-M^104–222
binds: all assays above
